{"source": "paper PMC9723645", "about": "(Nucleic Acids Research, 2022)", "data": [{"target": "human fatty acid amide hydrolase (FAAH), amino acids 30-579, untagged (Homo sapiens, UniProt O00519)", "sequence (O00519 30-579)": "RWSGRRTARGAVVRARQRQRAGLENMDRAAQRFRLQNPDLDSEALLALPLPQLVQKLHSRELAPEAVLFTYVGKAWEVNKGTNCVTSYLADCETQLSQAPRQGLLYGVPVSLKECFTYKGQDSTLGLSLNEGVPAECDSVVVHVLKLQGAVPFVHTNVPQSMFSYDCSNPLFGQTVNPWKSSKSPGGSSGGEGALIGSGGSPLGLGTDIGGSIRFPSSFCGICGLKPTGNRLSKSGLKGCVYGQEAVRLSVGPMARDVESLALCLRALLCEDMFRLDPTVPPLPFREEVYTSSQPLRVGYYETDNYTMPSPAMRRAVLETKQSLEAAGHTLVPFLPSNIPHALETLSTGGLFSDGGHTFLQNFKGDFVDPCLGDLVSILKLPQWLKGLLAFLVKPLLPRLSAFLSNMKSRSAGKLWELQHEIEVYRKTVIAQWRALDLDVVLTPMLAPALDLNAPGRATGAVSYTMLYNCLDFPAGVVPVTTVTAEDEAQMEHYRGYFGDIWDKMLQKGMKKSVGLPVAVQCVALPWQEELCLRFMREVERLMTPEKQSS", "assay": "SPR", "units": {"Kd": "nM", "koff": "s⁻¹", "kon": "M⁻¹ s⁻¹"}, "values": [{"binder": "F9 llama-VHH nanobody (affinity maturated) (VHH) VHH: QVQLVESGGGLAQAGGSLRLSCAASGRTFSDNTMAWHRQGPGKQRGLVAFITTGGRTVYTDSVKGRFIISRDNAKNTGYLQMNSLKPEDTAVYYCFVAGNWGQGTQVTVSS", "Kd": 1.26, "koff": 0.000214, "kon": 169000}, {"binder": "OD1 llama-VHH nanobody (affinity maturated) (VHH) VHH: QVQLVESGGGLVQAGGSLRLSCAASGRTFSDNTMAWHRQGPGKQRGLVAFITTGGRTVYTDSVKGRFIISRDNAKNTGFLQMNSLKPEDTAVYYCYVAGNWGQGTQVTVSS", "Kd": 0.65, "koff": 0.000107, "kon": 165000}, {"binder": "A3 llama-VHH nanobody (original) (VHH) VHH: QVQLVESGGGLVQAGGSLRLSCAASGRTFSDNTMAWHRQGPGKQRGLVAFITTGGRTVYTDSVKGRFIISRDNAKNTGYLQMNSLKPEDTAVYYCYVAGNWGQGTQVTVSS", "Kd": 1.56, "koff": "5.7e-05", "kon": 36400}]}, {"target": "recombinant mouse artemin protein (Ala112-Gly224 fragment) (Mus musculus, UniProt Q9Z0L2)", "sequence (Q9Z0L2 112-224)": "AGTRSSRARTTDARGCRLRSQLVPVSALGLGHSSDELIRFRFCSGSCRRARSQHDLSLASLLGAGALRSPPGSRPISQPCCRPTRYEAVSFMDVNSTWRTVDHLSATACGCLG", "assay": "SPR", "units": {"Kd": "nM", "koff": "s⁻¹", "kon": "M⁻¹ s⁻¹"}, "values": [{"binder": "LU68 llama-VHH nanobody (naive) (VHH) VHH: QVQLVESGGGLVQAGGSLRLSCAASGRTLSRYAVGWFRQAPGKEREFVAVVHWNGVSTYYAEPVKGRFTISRDNAKNTVYLQMNSLKPDDTAVYYCAAATTSYVDIYTTDYDYWGQGTQVTVSS", "Kd": 456, "koff": 0.023, "kon": 50000}, {"binder": "LM41 llama-VHH nanobody (mutated) (VHH) VHH: QVQLVESGGGLVQAGGSLRLSCAASGRTLSRYAVGWFRQAPGKEREFVAVVHWNGVSTYHAEPVKGRFTISRDNAKNTVYLQMNSLKPDDTAVYYCAAATTSYVDIYTTDYDYWGQGTQVTVSS", "Kd": 111, "koff": 0.0052, "kon": 46000}, {"binder": "LU5 llama-VHH nanobody (naive) (VHH) VHH: QVQLVESGGGLVQAGASLRLSCAASGGTLVNSSMGWFRQAPGKERDFVATINWRGDTTWYGESVKGRFSISRDNAKNTVYLQMNSLNPEDTAVYYCAVYRTRYYTGRRMMSPDEYDVWGQGTQVTVSS", "Kd": 178, "koff": 0.0088, "kon": 49000}, {"binder": "LM52 llama-VHH nanobody (mutated) (VHH) VHH: QVQLVESGGGLVQAGASLRLSCAASGGTLVNSSMGWFRQAPGKERDFVATINWRGDTTWYGESVKGRFSISRDNTKNMVYLQMNSLKPEDTAVYYCAVYRTRYYTGRRMMSPDEYDVWGQGTQVTVSS", "Kd": 102, "koff": 0.004, "kon": 39000}]}]}
